Source: US9687591B2, “Building stratified biomimetic tissues and organs using crosslinked ultrashort peptide hydrogel membranes” (Agency for Science, Technology and Research, priority 2010, dated 2017)
“Also recorded” adds a separate entry of the source. Ends that are not written are not given here. Peptide text beside a SMILES is read from it.

Experiments:
[1] = test system: Human corneal endothelial cells (HCEC); experiment: Biocompatibility of cross-linked IVKC gels, calcein staining; format: cell-based; conditions: gels cross-linked with 0.2% H2O2 in PBS for 24 hours and purified
Method: To test the biocompatibility of cross-linked IVKC gels, a sensitive primary cell type was seeded onto the gels. IVKC gels were cross-linked with 0.2% H2O2 in PBS for 24 hours and excess H2O2 was purified from the gel using a dialysis-inspired method (as described in WO 2014/116187).
To test the biocompatibility of cross-linked IVKC gels, a sensitive primary cell type was seeded onto the gels. IVKC gels were cross-linked with 0.2% H2O2 in PBS for 24 hours and excess H2O2 was purified from the gel using a dialysis-inspired method reported previously, see e.g. WO 2014/116187. Human corneal endothelial cells (HCEC, a kind gift from Singapore Eye Research Institute) freshly derived from human donor corneas were then seeded onto the gel and maintained in culture.

[2] = Oscillation rheology of cysteine-containing peptide gels (stiffness G', LVE limit); format: physicochemical
Excerpt: Oscillatory rheology was used to quantify the stiffness of IVKC gels formed in the presence of varying amount of H2O2 in PBS. Elastic modulus, G′, was plotted against angular frequency, ω (FIG. 45). As already mentioned in FIG. 41, the G′ value increased tremendously after crosslinking with 0.06% H2O2 in PBS. Further increasing the amount of H2O2 increased the G′ values even more. For instance, gels cross-linked completely with 0.2% H2O2 in PBS achieved a G′ value of nearly 1 MPa. This level of stiffness was not achieved before. Hereafter, IVKC gels will be prepared in the presence of 0.2% H2O2 in PBS. Data here was reported as average of 4 samples±standard deviation.
Rheology: The rheological properties of casted gels were measured with an ARES-G2 (TA Instruments, USA) using the oscillation method. Frequency-sweep studies were performed with ω=0-100 rad/s at strain, γ=0.1%. The gel stiffness was represented by plotting G′ against ω. Amplitude-sweep studies were performed beforehand at 1 Hz with γ=0-100%. The LVE limit of the gel was defined as the value of γ when G′ first dropped below 90% of the average initial value.
The rheological properties of casted gels were measured with an ARES-G2 (TA Instruments, USA) using the oscillation method. Frequency-sweep studies were performed with ω=0-100 rad/s at strain, γ=0.1%. The gel stiffness was represented by plotting G′ against ω. […]

[3] = Extent of crosslinking of IVKC by UPLC; format: physicochemical; conditions: 24 hours
Method: The crosslinking density of IVKC could be further modulated with H2O2 content. Ultra performance liquid chromatography (UPLC) was used to study the extent of crosslinking in IVKC after oxidation with varying amount of H2O2 in PBS for 24 hours. […] At 0.2% H2O2 in PBS for instance, IVKC was 100% crosslinked and none of the monomers remained.
The crosslinking density of IVKC can be modulated with H2O2 content. Ultra performance liquid chromatography (UPLC) was used to study the extent of crosslinking in IVKC after oxidation with varying amount of H2O2 in PBS for 24 hours (FIG. 43). In the absence of H2O2, IVKC remained mostly as monomers (>96%). […] At 0.2% H2O2 in PBS for instance, IVKC was 100% cross-linked and none of the monomers remained.
The crosslinking density of Ac-IVKC was modulated by varying the concentration of H2O2 (0-0.2%). The amount of monomeric (retention time-2.40 mins) and dimeric (˜2.67 mins) species were then quantified with ultra-performance liquid chromatography (UPLC) after incubation in the various H2O2 concentration for 24 hours at room temp (FIG. 43).

[4] = Concentration needed for gelation; format: physicochemical
Method: FIG. 18A illustrates the determination of a suitable gelation concentration with the LK6 control peptide sequence. A working concentration was established that was suitably low so as to save on material during testing but yet, capable of forming gels strong enough to be manipulated. LK6 gels were therefore casted at different concentrations and their stiffness was measured (average±s.d. of triplicates). As expected, G′ values increased with peptide concentration and it was determined that a working concentration of 12 mM afforded gels with sufficient mechanical integrity to withstand handling.
The present invention as defined above offers significant improvements in material properties such as stiffness, elasticity and resistance of the gel to degradation compared to previous disclosures—ultra-small peptide-based and peptide/polymer-based hydrogels. Reactive chemical groups are also introduced to the peptide fibers which allow the facile in-situ chemical conjugation of biological signals. Furthermore, compared to previous formulations, less material is now needed for gelation (e.g. 10 mg/ml LK6C instead of 25 mg/ml for LK6), which translates into significant cost savings and higher water contents. This class of material is suitable for biomedical applications, for example but not limited to, three-dimensional cell culture, tissue engineering, sensing and drug and gene delivery.

[5] = Water soak of casted gels (shape retention / degradation); format: physicochemical; conditions: not oxidised, 24 hours of water soak
Method: Peptide was dissolved in 200 μL of water+/−H2O2 and filled into custom-made hollow ring casts (diameter ˜1 cm). The ring ends were sealed with parafilm to minimise evaporation and the cast was kept at 25° C. for 22 hours before further manipulations.
LK6 or LK6C gels were first casted and then soaked in water for various durations. […] These observations are also supported by rheological measurements (FIG. 28). Therefore, the strategy of disulfide crosslinking has increased the resistance of the gel to degradation and has made it possible to use the gel at a lower concentration compared to previous formulations. This, in turn, will translate into significant cost savings.

skins of guinea pigs = experiment: Direct contact Kligman maximization test (GLP, ISO 10993-10); format: in vivo; conditions: GLP study by CRO Toxikon
V79 = experiment: Direct contact V79 colony assay (GLP); format: cell-based; conditions: GLP study by CRO Toxikon
[6] = Kinetics of disulfide formation, oxidation by air (Ellman's assay); format: physicochemical; conditions: 12 mM in water, capped tubes, room temperature, after 5 days
Method: For oxidation by air, LK6C dissolved in water at 12 mM was left in capped micro-centrifuge tubes at room temperature. […] H2O2-assisted oxidation was much more efficient in the formation of disulfide bridges.
(§1) For air oxidation, LK6C was dissolved in MilliQ water by vigorous vortexing for five minutes and dispensed into 20 μL aliquots. At appropriate time points, 180 μL of DTNB (Sigma, Singapore) working solution (4 mg/mL in 0.1M phosphate buffer pH 7.0) was mixed with the peptide solution for 15 minutes. Absorbance at 412 nm was then measured (InfiniteM200, Tecan, Switzerland). Using a calibration curve generated with L-cysteine (Sigma) as standard (R^2=0.999), the background-subtracted value was normalised to the reading at 0 hour to give the % of thiol remaining. For H2O2-assisted oxidation, LK6C was dissolved in water (HPLC grade, J. T. Baker, N.J., USA) containing 0.06% H2O2 (Merck, Sinagpore) and dispensed into aliquots. At appropriate time points, the aliquots were analysed using an Aquity® UPLC (Waters, USA) fitted with a single-quadrupole MS. Using a calibration curve generated with pure LK6C as standard (R^2=0.999), the area under the peak corresponding to LK6C monomer was normalised to that at 0 hour to give the % of thiol remaining.

[7] = Kinetics of disulfide formation, H2O2-assisted oxidation (UPLC); format: physicochemical; conditions: 12 mM in water containing 0.06% H2O2, after 1 day
Method: Only ˜50% of thiols remained after 1 day. The R^2 value of the thiol calibration curve was 1.000.
as §1

## Ac-IVKC
[1]
  duration cells remained viable (positive calcein staining): at least ten days
[2]; 0.06% H2O2 in PBS
  increase of stiffness after oxidative crosslinking: close to two orders
[2]; gels crosslinked completely with 0.2% H2O2 in PBS
  stiffness, elastic modulus G': ~1 MPa
[3]; 0.2% H2O2 in PBS
  crosslinked fraction: 100%
[3]; absence of H2O2, PBS
  monomer content: > 96%

## LIVAGK (L-form) [LK6]
[4]
  concentration needed for gelation: 25000 µg/mL
[5]
  gel state after water soak: did not survive; also recorded: completely degraded

## CC[C@H](C)[C@H](NC(=O)[C@H](CC(C)C)NC(C)=O)C(=O)N[C@H](C(=O)N[C@@H](C)C(=O)NCC(=O)N[C@@H](CCCCN)C(=O)N[C@@H](CS)C(=O)O)C(C)C [LK6C, LIVAGKC] (Ac-LIVAGKC-OH)
Skins of guinea pigs
  skin sensitization: no sensitization
V79
  toxicity: no significant toxicity
[6]
  % of thiols remaining: ~80%
[7]
  % of thiols remaining: ~50%
